Results as given in US20190211400A1.

Target: death receptor (DR) 3 on mouse mucosal CD4+ T cells (mouse)
Test: cell-based or functional assay

With “TL1A added to mouse MLN and LP mononuclear cell cultures (from UniProt Q5UBV8 76-252) (ligand)” the numbers of IFN-gamma producing CD4+ cells (intracellular staining of LPMC, without vs. with TL1A) was 1 and the numbers of IL-17-producing CD4+ cells (intracellular staining of LPMC, without vs. with TL1A) was 0.89.
